In patent US20240117061A1:

How the values were obtained:
[1] = target: recombinant cynomolgus monkey BCMA-huFc (cynomolgus monkey; human); assay: ELISA, hybridoma supernatant, dilution, immobilized cynoBCMA-huFc
[2] = target: recombinant cynomolgus monkey BCMA-huFc (cynomolgus monkey; human); assay: ELISA, hybridoma supernatant, dilution 1:9, immobilized cynoBCMA-huFc
[3] = target: recombinant cynomolgus monkey BCMA-huFc (cynomolgus monkey; human); assay: ELISA, hybridoma supernatant, dilution 1:27, immobilized cynoBCMA-huFc
[4] = target: recombinant cynomolgus monkey BCMA-huFc (cynomolgus monkey; human); assay: ELISA, hybridoma supernatant, dilution 1:81, immobilized cynoBCMA-huFc
[5] = target: recombinant cynomolgus monkey BCMA-huFc (cynomolgus monkey; human); assay: ELISA, hybridoma supernatant, dilution 1:243, immobilized cynoBCMA-huFc
[6] = target: recombinant cynomolgus monkey BCMA-huFc (cynomolgus monkey; human); assay: ELISA, hybridoma supernatant, dilution 1:729, immobilized cynoBCMA-huFc
[7] = target: recombinant cynomolgus monkey BCMA-huFc (cynomolgus monkey; human); assay: ELISA, hybridoma supernatant, stock solution, immobilized cynoBCMA-huFc
[8] = target: recombinant cynomolgus monkey BCMA-huFc (cynomolgus monkey; human); assay: ELISA, hybridoma supernatant, dilution 1:2187, immobilized cynoBCMA-huFc

recombinant cynomolgus monkey BCMA-huFc (cynomolgus monkey; human), sequence (chain, as listed by the source limits assumed): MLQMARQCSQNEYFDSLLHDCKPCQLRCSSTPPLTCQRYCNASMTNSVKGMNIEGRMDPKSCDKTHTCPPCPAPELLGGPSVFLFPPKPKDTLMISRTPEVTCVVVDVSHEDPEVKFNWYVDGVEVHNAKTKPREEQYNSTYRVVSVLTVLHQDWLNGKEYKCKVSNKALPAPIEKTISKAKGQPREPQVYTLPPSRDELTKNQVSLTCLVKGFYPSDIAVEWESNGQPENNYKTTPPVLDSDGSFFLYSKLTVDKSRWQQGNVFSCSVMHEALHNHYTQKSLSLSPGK

B1: mouse monoclonal antibody 202E11H10E3 (antibody, V domains shown)
VH: QVQLQQSDAELVKPGTSVKISCKVSGYTFTDHTIHWMKQRPEQGLEWIGYIYPRNGNTKYNEKFKGKATLTADKSSSTAYMHLNSLTSEDSAVYFCARYDYDGYFDVWGTGTTVTVSS
VL: DVVMTQTPLSLPVSLGDQASISCRSSQSHVHSDGHTYLHWYLQKPGQSPELLIYKVSNRFSGVPDRFSGSGSGTDFTLKISRVEAEDLGVYFCSQNTHFPWTFGGGTKLEIK
ELISA result [1]: 0.31 | ELISA result [2]: 0.18 | ELISA result [3]: 0.15 | ELISA result [4]: 0.14 | ELISA result [5]: 0.15 | ELISA result [6]: 0.13 | ELISA result [7]: 0.75 | ELISA result [8]: 0.12
